Columns and labels:
[1] = molecular target: T1, BMP2 (Homo sapiens, UniProt P12643); assay: Surface plasmon resonance (SPR), BMPs injected over VHH-coated chip; conditions: molecule coupled to chip, —: No binding detected
T1 sequence (P12643 283-396): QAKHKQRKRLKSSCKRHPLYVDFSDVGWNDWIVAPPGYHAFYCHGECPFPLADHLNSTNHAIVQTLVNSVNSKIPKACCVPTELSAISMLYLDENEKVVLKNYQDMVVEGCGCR
Method: (§1) In a first set of experiments, controls and VHHs (either as monomers or dimers) were coupled to SPR chips and the measurement of BMP affinities was obtained by injecting the different BMPs to the plate.
(§2) Serial dilutions (2.0-10 μg/ml) of purified VHHs were spotted on an amine-specific SensEye gold-film gel-type SPRchip (Ssens), using a Continuous Flow Microspotter (Wasatch Microfluidics, Salt Lake City, Utah, United States) as described (Lokate et al., 2007). BMP binding was analyzed on an IBIS MX96 (IBIS Technologies, Enschede, The Netherlands) instrument by performing injections with dilution series (0.05-2.0 μg/ml) of recombinant BMPs on the VHH-coated chip. In each injection, BMPs were injected and incubated for 8 min, followed by 15 min thorough washing with binding buffer (PBS+0.05% Tween20+0.05% sodium azide) to measure dissociation. Epitope binning was done by injecting VHH dilutions (2.0 μg/ml) over the chip, immediately after the dissociation step. Injections with blank binding buffer were used as reference. After each concatenated injection, the chip was regenerated with 10 mM glycine-HCl, pH 2.0. Experimental data were processed with SPRintX software (IBIS Technologies) and kinetic parameters were determined using Scrubber2 software (BioLogic Software, Campbell, ACT, Australia). Binding constants were obtained by global fitting to a one-site binding model.

[2] = molecular target: T2, BMP6 (Homo sapiens, UniProt P22004); assay: as above; conditions: molecule coupled to chip; unit inferred; — not defined there (Table 1: No binding detected)
T2 sequence (P22004 375-513): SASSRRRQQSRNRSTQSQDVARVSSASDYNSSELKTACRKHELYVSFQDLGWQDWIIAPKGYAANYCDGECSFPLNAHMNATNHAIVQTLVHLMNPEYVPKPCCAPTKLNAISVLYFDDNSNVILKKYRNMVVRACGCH
Method: as §1, with “To confirm their BMP specificities and to elucidate their binding affinities, our VHHs were subjected to surface plasmon resonance (SPR) analysis. In” for “In”
as §2

[3] = molecular target: T3, BMP5 (Homo sapiens, UniProt P22003); assay: as above; type: binding; conditions: molecule coupled to chip; unit inferred
T3 sequence (P22003 317-454): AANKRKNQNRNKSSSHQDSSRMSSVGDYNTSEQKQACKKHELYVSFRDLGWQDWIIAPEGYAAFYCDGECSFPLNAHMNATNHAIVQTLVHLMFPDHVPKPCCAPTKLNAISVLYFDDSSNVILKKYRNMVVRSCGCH
Method: as §1, with “To confirm their BMP specificities and to elucidate their binding affinities, our VHHs were subjected to surface plasmon resonance (SPR) analysis. In” for “In”
as §2

[4] = molecular target: T4, BMP7 (Homo sapiens, UniProt P18075); assay: as above; type: binding; conditions: molecule coupled to chip; unit inferred; — not defined there (Table 1: No binding detected)
T4 sequence (P18075 293-431): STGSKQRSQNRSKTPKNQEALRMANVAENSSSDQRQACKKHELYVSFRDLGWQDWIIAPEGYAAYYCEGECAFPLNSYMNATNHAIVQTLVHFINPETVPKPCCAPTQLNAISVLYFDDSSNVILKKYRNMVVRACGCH
Method: as §1, with “To confirm their BMP specificities and to elucidate their binding affinities, our VHHs were subjected to surface plasmon resonance (SPR) analysis. In” for “In”
as §2

[5] = molecular target: T5, BMP4 (Homo sapiens, UniProt P12644); assay: as above; type: binding; set-up: purchased R&D systems; conditions: molecule coupled to chip
T5 sequence (P12644 293-408): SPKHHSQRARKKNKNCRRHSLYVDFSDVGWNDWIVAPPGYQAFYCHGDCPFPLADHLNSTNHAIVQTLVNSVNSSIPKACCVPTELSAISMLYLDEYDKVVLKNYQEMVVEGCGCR
Method: as §1, with “To confirm their BMP specificities and to elucidate their binding affinities, our VHHs were subjected to surface plasmon resonance (SPR) analysis. In” for “In”
as §2

[6] = system: human BMP4; assay: BMP activity luciferase reporter assay (BRE-luciferase, ID1 promoter) in C2C12 cells; type: cell-based, mouse; conditions: LDN 0.5 μM, DMH1 0.2 μM; for specificity / selectivity across BMP2, 4, 5, 6, 7, 9, 10, 12: VHH 500 ng/ml
Method: (§3) One of the most studied BMP target genes is the Inhibitor of Differentiation 1 (ID1). This is an immediate early gene that is activated by binding of the phosphorylated SMADs to its promoter region (López-Rovira et al., 2002). Thus, we employed the BMP-responsive C2C12 cells, which are stably transfected with the BRE-luciferase vector containing the BMP-Responsive-Element (the mouse ID1 promoter) cloned into the pGL3 luciferase vector (Zilberberg 2007). […] C2C12 cells were treated with the different BMPs with or without our VHHs or human Noggin at a concentration of 5 μg/ml. Luciferase activity was measured after 16 hours incubation. Most of the transcriptional data is in concordance with the results obtained with the phosphorylation of SMAD1/5/8.
(§4) C2C12 cells were plated in 96-well plates at 5×10^3 cells/well and cells were allowed to attach overnight. 100 μl of DMEM with 0.1% BSA were added in each well. VHH antibodies and human Fc-Noggin at the indicated concentrations were added at the same time. Wells with unstimulated cells were added as controls. Cells were treated in triplicate with the BMPs at the indicated concentrations for 16 hours. Luciferase activity was measured by adding 100 μl of luciferase substrate solution from the Bright-Glo™ Luciferase Assay System (Promega Benelux, Leiden, The Netherlands). After 3 minutes of incubation, luciferase activity was measured with Synergy HT Multi-Mode Microplate Reader (Biotek, Winooski, Vt., United States). Luciferase values were normalized to background activity (activity of wells with no cells) and represented as ratio to the activity of BMP-stimulated cells.
(§5) To evaluate the extent of this increase in potency, the IC50 of the different VHHs were determined in a dose-dependent inhibition assay in C2C12 cells (FIG. 25). C2C12 cells were plated in 96-well plates at 5×10^3 cells/well and cells were allowed to attach overnight 100 μl of DMEM with 0.1% BSA were added in each well. VHH antibodies were added at the indicated concentrations at the same time as 5 ng/ml BMP4 (FIG. 25A-B, D) or 50 ng/ml of BMP2 (FIG. 25C,D). Luciferase activity was measured after 16 hours. Values are represented as ratio to the activity of BMP-stimulated cells. […] However, its effects were more striking for BMP2 rather than BMP4 inhibition. […] The IC50 values for BMP4 inhibition observed in our VHHs are considerably lower than those observed for anti-BMP4 commercially available from R&D (Katagiri et al 1994) and those described in WO_2008/030611.
(§6) C2C12 cells were cultured in 96-well plates at 5×10^3 cells/well. After overnight attachment cells were stimulated with 10 ng/ml hBMP4 (Cat No. 314-BP-020; R&D Systems), 50 ng/ml hBMP2 (Cat No. 355-BM-010; R&D Systems), 200 ng/ml hBMP5 (Cat No. 615-BMC-020; R&D Systems), 50 ng/ml hBMP6 (Cat No. 506-BP-020; R&D Systems), 200 ng/ml hBMP7 (Cat No. 354-BP-010; R&D Systems), 25 ng/ml hBMP9 (Cat No. 3209-BP-010; R&D Systems), 25 ng/ml hBMP10 (Cat No. 2926-BP-025; R&D Systems), 50 ng/ml hBMP12 (Cat No. 779-G7-010; R&D Systems) and with or without VHH antibodies: C4C4 and C8C8 at 500 ng/ml; natural antagonist: mNoggin (Cat No. 1967-NG-025; R&D Systems), hNoggin (Cat No. 6057-NG; R&D Systems) and mGremlin (cat#956-GR-050; R&D Systems) at 500 ng/ml; chemical antagonist: 0.5 μM LDN-193189 (Cat No. 11802; Cayman Chemical) and 0.2 μM DMH1 (Cat No. 57146; Selleckchem).
(§7) VHH efficacy was evaluated by stimulating cells with 10 ng/ml of hBMP4 and 50 ng/ml of hBMP2, with and without increase concentrations (from 0.1-10 μg/ml) of VHH and anti-BMP4 antibodies: clone 66119, clone 3H2, clone M912262, clone PA354-16.1.1, Clone EPR6211, and anti-BMP4 (ab39973). […] Unstimulated cells were used as controls and wells with no cells used to normalize the background activity. […]

[7] = system: BMP10; assay: as above; type: cell-based, human; conditions: 25 ng/ml hBMP10, 16 h; LDN 0.5 μM; DMH1 0.2 μM
Method: (§8) C2C12 cells were plated in 96-well plates when they reached confluency, cells were treated in triplicate with 25 ng/ml of BMP9, 50 ng/ml of BMP10 or 50 ng/ml of BMP12 (all from R&D Systems), for 16 hours. VHHs or Noggin were added at a concentration of 5 ug/ml. C2C12 cells or HEK293 were plated on 12-well plates and starved for 5 hours, before stimulation with 2 ng/ml of TGF-β (R&D Systems) or 100 ng/ml Activin-A (R&D Systems), respectively. VHHs at the indicated concentrations were added at the same time. After 1 hour cells were lysed, and protein isolation and SDS-PAGE separation were performed as described previously. For protein detection the following antibodies were used: antiphospho-SMAD2 at 1:1000 (Cell Signaling).
C2C12 cells were cultured in 96-well plates at 5×10^3 cells/well. […]

[8] = system: BMP9; assay: as above; type: cell-based, mouse; conditions: 25 ng/ml hBMP9, 16 h; LDN 0.5 μM; DMH1 0.2 μM
Method: as §8, §6

[9] = molecular target: T1, BMP2; assay: as above; type: cell-based, mouse
Method: as §3, §4, §5, §6, §7

[10] = molecular target: T3, BMP5; assay: as above; type: cell-based, mouse; set-up: purchased R&D Systems 615-BMC-020; conditions: 200 ng/ml hBMP5, 16 h; VHH, Noggin, Gremlin 500 ng/ml; LDN 0.5 μM; DMH1 0.2 μM
Method: as §3
as §4, with “Cells were treated in triplicate with the BMPs at the indicated concentrations for 16 hours.” left out, “Luciferase values were normalized to background activity (activity of wells with no cells) and represented as ratio to the activity of BMP-stimulated cells.” left out

BMPR1a: type I BMP receptor used as control in SPR [reference compound]
kd (BMP2) [1]: 14.0 10^−5 sec^−1
Kd [2]: 24 nM
Kd [3]: 60 nM
Kd [4]: 131 nM
kd (BMP4) [5]: 9.2 10^−5 sec^−1

CC(C)Oc1ccc(-c2cnc3c(-c4ccnc5ccccc45)cnn3c2)cc1 [DMH1]
specificity / selectivity across BMP2, 4, 5, 6, 7, 9, 10, 12 [6]: even less selective than Noggin
inhibition of BMP-10-derived signals, comparison of inhibitors [7]: shown to inhibit
inhibition of BMP-9-derived signals, comparison of inhibitors [8]: shown to inhibit

c1ccc2c(-c3cnn4cc(-c5ccc(N6CCNCC6)cc5)cnc34)ccnc2c1 [LDN, LDN-193189]
specificity / selectivity across BMP2, 4, 5, 6, 7, 9, 10, 12 [6]: even less selective than Noggin
inhibition of BMP-10-derived signals, comparison of inhibitors [7]: shown to inhibit
inhibition of BMP-9-derived signals, comparison of inhibitors [8]: shown to inhibit

B1: D99A of C4: mutational variant of VHH C4, single substitution D99A (protein)
VHH: EVQLVESGGGLVQAGGSLRLSCAASGRTFSTYAMGWFRQAPGKEREFVAAISKGGGITYYSDSVRGRFTISKENAKNTVYLQMNSLKPEDTAVYYCAAAPVSSVAKSPVAYPYWGQGTQVTVSS
inhibition of BMP2-mediated transcriptional activation ([9]; BMP2 50 ng/ml, 16 hours, 5 μg/ml): C4 nor its D99A mutant, had any effect

B2: Gremlin: natural BMP antagonist (R&D Systems) (protein)
chain: KKKGSQGAIPPPDKAQHNDSEQTQSPPQPGSRTRGRGQGRGTAMPGEEVLESSQEALHVTERKYLKRDWCKTQPLKQTIHEEGCNSRTIINRFCYGQCNSFYIPRHIRKEEGSFQSCSFCKPKKFTTMMVTLNCPELQPPTKKKRVTRVKQCRCISIDLD
inhibition of BMP-2 signals, comparison of inhibitors ([9]; 50 ng/ml hBMP2, 16 h, VHH, Noggin, Gremlin 500 ng/ml, LDN 0.5 μM, DMH1 0.2 μM): greatly inhibit
inhibition of BMP4-derived signals, comparison of inhibitors ([6]; 10 ng/ml hBMP4, 16 h, VHH, Noggin, Gremlin 500 ng/ml): greatly inhibit
inhibition of BMP5 signals, comparison of inhibitors [10]: greatly inhibit

— patent publication US10280218B2, “Antibodies binding to BMP4, and uses thereof” (ACADEMISCH MEDISCH CENTRUM, priority 2014, dated 2019)
